From PMC2628355, “The inhibition of assembly of HIV-1 virus-like particles by 3-O-(3',3'-dimethylsuccinyl) betulinic acid (DSB) is counteracted by Vif and requires its Zinc-binding domain” (Virology Journal, 2008)

Columns and labels:
[1] = biological target: VifsubCΔ170, triple mutant of HIV-1 Vif (subA+subB and deletion of the 23 C-terminal residues) (HIV-1); test: SDS-PAGE and immunoblotting (dimer band); whole cell lysates or VLP of baculovirus-infected Sf9 cells on SDS-denaturing 12% polyacrylamide gels, blotted with anti-His or anti-Vif antibody; a band at twice the monomer's mass
[2] = biological target: the molecule itself; test: as above

Molecule	stoichiometry N [1]	stoichiometry N [2]
VifsubCΔ170, triple mutant of HIV-1 Vif (subA+subB and deletion of the 23 C-terminal residues) (domain or fragment)	2	
oligohistidine-tagged HIV-1 Vpr protein (natural protein, UniProt P69726 1-96, looked up, HIV-1 Vpr; also called His-tagged Vpr; source: Sf9 cells infected with recombinant baculovirus AcMNPV-Vpr (obtained from Eric Cohen); in cells and in extracellular VLP) MEQAPEDQGPQREPHNEWTLELLEELKNEAVRHFPRIWLHGLGQHIYETYGDTWAGVEAIIRILQQLLFIHFRIGCRHSRIGVTRQRRARNGASRS		2
